{"source": "patent US6207419A", "about": "“Thrombin inhibitory agents and methods of using same” (The University of North Carolina at Chapel Hill, priority 1999, dated 2001)", "key": {"[1]": {"system": "thrombin", "assay": "Thrombin inhibition in the absence of glycosaminoglycan", "type": "biochemical, human", "experimental": "All assays were performed at room temperature in 96-well microtiter plates previously coated with 2 mg/mL BSA.\n(§1) Residual thrombin activity was measured with 150 μM GlyProArg-NA and 1 mg/mL pB in the absence of glycosaminoglycan, 2 mg/mL pB in the presence of heparin and 4 mg/mL in the presence of dermatan sulfate. Residual factor Xa activity was measured with 500 μM Spectrozyme FXa and 2mg/mL pB in the presence or absence of glycosaminoglycan. Residual chymotrypsin activity was measured with 150 μM AlaAlaProPhe-NA and residual trypsin activity was measured with 150 μM GlyProArg-NA.\nAssays were performed at least in triplicate on two or more recombinant protein preparations."}, "[2]": {"system": "chymotrypsin", "assay": "Chymotrypsin inhibition in the absence of glycosaminoglycan", "type": "biochemical", "experimental": "(§2) Protease inhibition rates were determined as described previously (Rogers, S. J., Pratt, C. W., Whinna, H. C., and Church, F. C. (1992) J. Biol. Chem. 267(6), 3613-3617; Whinna, H. C., Choi, H. U., Rosenberg, L. C., and Church, F. C. (1993) J. Biol. Chem. 268, 3920-3924; Ciaccia, A. V., Cunningham, E. L., and Church, F. C. (1995) Protein Express. Purific. 6, 806-812; Ciaccia, A. V., Willemze, A. J., and Church, F. C. (1997) J. Biol. Chem. 272(2), 888-893). All assays were performed at room temperature in 96-well microtiter plates previously coated with 2 mg/mL BSA.\nIn the absence of glycosaminoglycan, 50-100 nM rHCII (wt, CHis6, CHis5 Pro, L444R, or L444R-CHis6) or rATIII (wt or CHis6) was incubated with 1 nM thrombin, 0.5 nM Factor Xa, 2 nM chymotrypsin, or 5 nM trypsin, in the presence of 1 mg/mL Polybrene (pB) (for thrombin and Factor Xa) and 2 mg/mL BSA in HNPN, pH 7.4.\nas §1, with “GlyProArg-NA. Substrate cleavage was measured by color development at […] on a Vmax Kinetic Microplate Reader (Molecular Devices).” for “GlyProArg-NA.”\n(§3) Assays were performed at least in triplicate on two or more recombinant protein preparations. All inhibition studies were measured under pseudo-first order conditions where inhibitor [I] is at least ten-fold higher than enzyme (protease) [E], and second-order rate constants were calculated as described previously (Ciaccia, A. V., Cunningham, E. L., and Church, F. C. (1995) Protein Express. Purific. 6, 806-812; Ciaccia, A. V., Willemze, A. J., and Church, F. C. (1997) J. Biol. Chem. 272(2), 888-893)."}, "[3]": {"target": "T1, plasma purified α-thrombin (Homo sapiens, UniProt P00734)", "T1 construct": "Human α-thrombin, HCII, and ATIII were purified in our laboratory from plasma; from tissue; host or cells: human plasma (purified in the authors' laboratory)", "assay": "Thrombin inhibition in the presence of glycosaminoglycans (heparin or dermatan sulfate)", "type": "biochemical", "experimental": "as §2\nIn the presence of glycosaminoglycans, 5 nM rHCII (wt, CHis6, CHis5 Pro, L444R, or L444R-CHis6) was incubated with 0.5 nM thrombin and 0-1 mg/mL heparin or 0-4 mg/mL dermatan sulfate or 10 nM rATIII (wt or CHis6) was incubated with 1 nM thrombin or factor Xa and 0-1 mg/mL heparin in the presence of 2 mg/mL BSA in HNPN, pH 7.4.\nas §1, with “GlyProArg-NA. Substrate cleavage was measured by color development at […] on a Vmax Kinetic Microplate Reader (Molecular Devices).” for “GlyProArg-NA.”\nas §3"}, "[4]": {"assay": "Heparin-Sepharose affinity chromatography", "type": "binding", "conditions": "NaCl gradient, 20 mM Hepes pH 7.4", "experimental": "100 μL of each fraction was aliquoted onto a 96-well microtiter plate and ELISA was performed. The peak elution ionic strength was determined by plotting 405 nm color development and NaCl concentration against the fraction number. All samples were run at least in triplicate using two or more protein preparations. Recombinant ATIII samples were run similarly to the HCII samples, except the elution gradient was run from 50 mM to 2 M NaCl."}, "[5]": {"system": "plasma-purified α-thrombin", "assay": "Thrombin inhibition with heparin before and after carboxypeptidase A digest", "type": "biochemical, human", "conditions": "2 hr, room temperature, FIG. 3", "experimental": "Forty ng of CPA was combined with approximately 1 μg of recombinant protein and incubated at room temperature. Following a 2-hr incubation at room temperature, 2 mM EDTA was added to quench CPA activity. Controls were run in which EDTA was added to the reaction prior to the addition of CPA. CPA digested proteins were then assayed according to previously mentioned procedures."}, "[6]": {"system": "thrombin", "assay": "pH titration of thrombin inhibition", "type": "biochemical", "conditions": "pH 6.2 to pH 8; FIG. 6", "text": "Therefore, it is possible that the enhanced thrombin inhibitory activity of rHCII-CHis6 (assayed at pH 7.4) is attributable to a charge on the carboxyl terminal tag. An assay was designed to measure thrombin inhibition by rHCII-CHis6 and wt-rHCII from pH 6.2 to pH 8."}}, "data": [{"molecule": "rHCII-CHis6: Recombinant HCII with six histidine residues added at the carboxyl terminus; SEQ ID NO:5 (protein, C-terminal His6 tag) MKHSLNALLIFLIITSAWGGSKGPLDQLEKGGETAQSADPQWEQLNNKNLSMPLLPADFHKENTVTNDWIPEGEEDDDYLDLEKIFSEDDDYIDIVDSLSVSPTDSDVSAGNILQLFHGKSRIQRLNILNAKFAFNLYRVLKDQVNTFDNIFIAPVGISTAMGMISLGLKGETHEQVHSILHFKDFVNASSKYEITTIHNLFRKLTHRLFRRNFGYTLRSVNDLYIQKQFPILLDFRTKVREYYFAEAQIADFSDPAFISKTNNHIMKLTKGLIKDALENIDPATQMMILNCIYFKGSWVNKFPVEMTHNHNFRLNEREVVKVSMMQTKGNFLAANDQELDCDILQLEYVGGISMLIVVPHKMSGMKTLEAQLTPRVVERWQKSMTNRTREVLLPKFKLEKNYNLVESLKLMGIRMLFDKNGNMAGISDQRIAIDLFKHQGTITVNEEGTQATTVTTVGFMPLSTQVRFTVDRPFLFLIYEHRTSCLLFMGRVANPSRSHHHHHH", "values": [{"measurement": "Ratio (mutant/wt serpin), thrombin", "setting": "[1]", "value": 1.48}, {"measurement": "rate of thrombin inhibition relative to wt-rHCII", "setting": "[1]", "value": 1.5, "unit": "fold"}, {"measurement": "k2 × 10^4 (M^-1 min^-1), thrombin", "setting": "[1]; pH 7.4, mean ± S.D.", "value": "1.92 ± .10 × 10^4 (M^-1 min^-1)"}, {"measurement": "Ratio (mutant/wt serpin), chymotrypsin", "setting": "[2]", "value": ".860"}, {"measurement": "chymotrypsin inhibition compared with wt-rHCII, in words", "setting": "[2]", "value": "essentially the same"}, {"measurement": "k2 × 10^4 (M^-1 min^-1), chymotrypsin", "setting": "[2]; pH 7.4, mean ± S.D.", "value": "61.0 ± 16 × 10^4 (M^-1 min^-1)"}, {"measurement": "average dermatan sulfate concentration at which the maximal rate was measured (in parentheses), thrombin", "setting": "[3]; Thrombin + dermatan sulfate, unit not printed in table (text b157: μg/mL)", "value": 500}, {"measurement": "average heparin concentration at which the maximal rate was measured (in parentheses), thrombin", "setting": "[3]; Thrombin + heparin, unit not printed in table (text b156: μg/mL)", "value": 5}, {"measurement": "dermatan sulfate concentration at maximal rate of thrombin inhibition", "setting": "[3]; dermatan sulfate", "value": "approximately 500 μg/mL"}, {"measurement": "maximal rate of thrombin inhibition in the presence of dermatan sulfate", "setting": "[3]; dermatan sulfate at optimal concentration", "value": "1.80±0.50×10^9 M^-1 min^-1"}, {"measurement": "decrease in the amount of heparin required for maximal activity versus wt-rHCII", "setting": "[3]; heparin", "value": "~20", "unit": "fold"}, {"measurement": "heparin concentration at maximal rate of thrombin inhibition", "setting": "[3]; heparin", "value": 5, "unit": "µg/mL"}, {"measurement": "maximal rate of thrombin inhibition in the presence of heparin", "setting": "[3]; heparin at optimal concentration", "value": "2.23±0.43×10^9 M^-1 min^-1"}, {"measurement": "Inhibition Rate k2 × 10^8 (M^-1 min^-1), Thrombin + dermatan sulfate", "setting": "[3]; maximal rate of dermatan sulfate curve, mean ± S.D.", "value": "18.0 ± 5.0 × 10^8 (M^-1 min^-1)"}, {"measurement": "Inhibition Rate k2 × 10^8 (M^-1 min^-1), Thrombin + heparin", "setting": "[3]; maximal rate of heparin curve, mean ± S.D.", "value": "22.3 ± 4.3 × 10^8 (M^-1 min^-1)"}, {"measurement": "Ratio (variant/wt), Thrombin + dermatan sulfate", "setting": "[3]; maximal rates", "value": 1.2}, {"measurement": "Ratio (variant/wt), Thrombin + heparin", "setting": "[3]; maximal rates", "value": 2.4}, {"measurement": "increase in the rate of thrombin inhibition with heparin versus wt-rHCII", "setting": "[3]; maximal rates with heparin", "value": "> 2", "unit": "fold"}, {"measurement": "increase of rate of thrombin inhibition with heparin", "setting": "[3]; with heparin versus without", "value": "over 100,000 fold"}, {"measurement": "Heparin-Sepharose [NaCl], peak elution concentration", "setting": "[4]", "value": 575, "unit": "mM"}, {"measurement": "change of heparin-dependent thrombin inhibition after CPA digest, in words", "setting": "[5]", "value": "shifts to lower rates of inhibition"}, {"measurement": "inhibition of thrombin over pH titration, in words", "setting": "[6]", "value": "greater than that by wt-rHCII"}]}]}
